According to patent publication US20240132578A1 (published 2024):

Key:
[1] = target: HIV-1 93UG077 Env (clade A pseudovirus) (HIV-1); experiment: cell-based or functional assay
[2] = target: HIV-1 92UG005 Env (clade D pseudovirus) (HIV-1); experiment: cell-based or functional assay
[3] = target: HIV-1 APV-13 Env (clade B pseudovirus) (HIV-1); experiment: cell-based or functional assay
[4] = target: HIV-1 94UG103 Env (clade A pseudovirus) (HIV-1); experiment: cell-based or functional assay
[5] = target: HIV-1 APV-17 Env (clade B pseudovirus) (HIV-1); experiment: cell-based or functional assay
[6] = target: HIV-1 JRCSF Env (clade B pseudovirus) (HIV-1, UniProt P20871 32-848); experiment: cell-based or functional assay
[7] = target: HIV-1 IAVI-C3 Env (clade C pseudovirus) (HIV-1); experiment: cell-based or functional assay
[8] = target: HIV-1 APV-6 Env (clade B pseudovirus) (HIV-1); experiment: cell-based or functional assay
[9] = target: aMLV envelope (negative control pseudovirus); experiment: cell-based or functional assay
[10] = target: HIV-1 92BR020 Env (clade B pseudovirus) (HIV-1); experiment: cell-based or functional assay
[11] = target: HIV-1 CMU02 Env (CRF01_AE pseudovirus) (HIV-1); experiment: cell-based or functional assay
[12] = target: HIV-1 92RW020 Env (clade A pseudovirus) (HIV-1); experiment: cell-based or functional assay
[13] = target: HIV-1 IAVI-C18 Env (clade C pseudovirus) (HIV-1); experiment: cell-based or functional assay
recombinant gp41 HxB2 = target: T1, recombinant gp41 HxB2 (HIV-1, UniProt P04578 541-682); experiment: screening ELISA on recombinant gp41 (column mAb Specificity)
T1 construct: domain: gp41

[14] = target: HIV-1 IAVI-C22 Env (clade C pseudovirus) (HIV-1); experiment: cell-based or functional assay
[15] = target: HIV-1 92UG024 Env (clade D pseudovirus) (HIV-1); experiment: cell-based or functional assay
[16] = target: HIV-1 93IN905 Env (clade C pseudovirus) (HIV-1); experiment: cell-based or functional assay
[17] = target: HIV-1 92TH021 Env (CRF01_AE pseudovirus) (HIV-1); experiment: cell-based or functional assay
[18] = target: T2, recombinant, monomeric gp120 JR-CSF (HIV-1, UniProt P20871 32-503); experiment: screening ELISA on recombinant gp120 (column mAb Specificity)
T2 construct: domain: gp120; also called JR-CSF gp120

[19] = target: HIV-1 94UG103 envelope protein (Env) on pseudotyped virus (HIV-1 strain 94UG103); experiment: cell-based or functional assay
[20] = target: HIV-1 JR-CSF envelope protein (Env) on pseudotyped virus (HIV-1 isolate JR-CSF, UniProt P20871 32-848); experiment: cell-based or functional assay
[21] = target: HIV-1 IAVI_C22 envelope protein (Env) on pseudotyped virus (HIV-1 strain IAVI C22); experiment: cell-based or functional assay
[22] = target: HIV-1 SF162 envelope protein (Env) on pseudotyped virus (HIV-1 isolate SF162, UniProt P19550 32-847); experiment: cell-based or functional assay
[23] = target: HIV-1 92TH021 envelope protein (Env) on pseudotyped virus (HIV-1 strain 92TH021); experiment: cell-based or functional assay
[24] = target: HIV-1 NL43 envelope protein (Env) on pseudotyped virus (HIV-1 strain NL43); experiment: cell-based or functional assay
[25] = target: HIV-1 93IN905 envelope protein (Env) on pseudotyped virus (HIV-1 strain 93IN905); experiment: cell-based or functional assay
[26] = target: HIV-1 92BR020 envelope protein (Env) on pseudotyped virus (HIV-1 strain 92BR020); experiment: cell-based or functional assay
[27] = target: aMLV envelope on pseudotyped virus (negative control) (aMLV); experiment: cell-based or functional assay
[28] = target: T3, V1/V2 deleted HIV-1JR-CSF Env expressed on transfected cells (HIV-1 strain JR-CSF, UniProt P20871 32-848); experiment: flow cytometry on transfected 293T cells (FIG. 13E)
T3 construct: whole, on cells; also called variable loop deleted HIV-1JR-CSF variant (V1/V2)

[29] = target: T4, V3 deleted HIV-1JR-CSF Env expressed on transfected cells (HIV-1 strain JR-CSF, UniProt P20871 32-848); experiment: as above
T4 construct: whole, on cells; also called variable loop deleted HIV-1JR-CSF variant (V3)

[30] = target: T5, HIV-1 YU2 gp160 expressed on the cell surface (HIV-1 strain YU2, UniProt P35961 32-843); experiment: flow cytometry on transfected cells (FIG. 8)
T5 construct: whole, on cells

[31] = target: T6, recombinant, monomeric gp120JR-CSF (HIV-1 isolate JR-CSF, UniProt P20871 32-503); experiment: ELISA, initial screen of B cell culture supernatants
T6 construct: domain: gp120; also called JR-CSF gp120; JR-CSFgp120

recombinant gp41HxB2 = target: T7, recombinant gp41HxB2 (HIV-1 clone HxB2, UniProt P04578 541-682); experiment: as above
T7 construct: domain: gp41

Binder	IC50 (µg/mL), pseudovirus neutralization [1] [µg/mL]	IC50 (µg/mL), pseudovirus neutralization [2] [µg/mL]	IC50 (µg/mL), pseudovirus neutralization [3] [µg/mL]	IC50 (µg/mL), pseudovirus neutralization [4] [µg/mL]	IC50 (µg/mL), pseudovirus neutralization [5] [µg/mL]	IC50 (µg/mL), pseudovirus neutralization [6] [µg/mL]	IC50 (µg/mL), pseudovirus neutralization [7] [µg/mL]	IC50 (µg/mL), pseudovirus neutralization [8] [µg/mL]	IC50 (µg/mL), pseudovirus neutralization [9] [µg/mL]	IC50 (µg/mL), pseudovirus neutralization [10] [µg/mL]	IC50 (µg/mL), pseudovirus neutralization [11] [µg/mL]	IC50 (µg/mL), pseudovirus neutralization [12] [µg/mL]	IC50 (µg/mL), pseudovirus neutralization [13] [µg/mL]	binding result (recombinant gp41 HxB2)	binding result (recombinant gp41HxB2)	further results
1496_C09 (PG9) (TCN-109) (antibody, V domains shown) VH: QRLVESGGGVVQPGSSLRLSCAASGFDFSRQGMHWVRQAPGQGLEWVAFIKYDGSEKYHADSVWGRLSISRDNSKDTLYLQMNSLRVEDTATYFCVREAGGPDYRNGYNYYDFYDGYYNYHYMDVWGKGTTVTVSS VL: QSALTQPASVSGSPGQSITISCNGTSNDVGGYESVSWYQQHPGKAPKVVIYDVSKRPSGVSNRFSGSKSGNTASLTISGLQAEDEGDYYCKSLTSTRRRVFGTGTKLTVLG [1496_C09 (PG9) (TCN-109), listing 1 of 2 here]	> 50	> 50	> 50	0.17	26.4	< 0.0025	12.9	0.09	> 50	> 50	> 50	0.06	0.05	no binding	–	–
1443_C16 (PG16) (TCN-116) (antibody, V domains shown) VH: QEQLVESGGGVVQPGGSLRLSCLASGFTFHKYGMHWVRQAPGKGLEWVALISDDGMRKYHSDSMWGRVTISRDNSKNTLYLQFSSLKVEDTAMFFCAREAGGPIWHDDVKYYDFNDGYYNYHYMDVWGKGTTVTVSS VL: QSALTQPASVSGSPGQTITISCNGTSSDVGGFDSVSWYQQSPGKAPKVMVFDVSHRPSGISNRFSGSKSGNTASLTISGLHIEDEGDYFCSSLTDRSHRIFGGGTKVTVLG [1443_C16 (PG16) (TCN-116), listing 1 of 2 here]	> 50	> 50	> 50	0.008	> 50	< 0.0025	14.8	0.08	> 50	> 50	> 50	0.004	0.007	no binding	–	IC50 (µg/mL), pseudovirus neutralization [14]: 0.069 µg/mL; IC50 (µg/mL), pseudovirus neutralization [15]: > 50 µg/mL; IC50 (µg/mL), pseudovirus neutralization [16]: 0.1 µg/mL; IC50 (µg/mL), pseudovirus neutralization [17]: 0.13 µg/mL; binding result [18]: no binding
1460_G14 (PGG14) (antibody, human IgG1, kappa, V domains shown) VH: QVLLVQSGTEVKKPGSSVKVSCQASGGAFSSYAFSWVRQAPGQGLEWMGMITPVFGETKYAPRFQGRLTLTAEESLSTTYMELRSLTSDDTAFYYCTRDRRVVPMATDNWLDPWGQGTLVTVSS VL: DIQLTQSPSSLSASVGDRVTVTCRASQTIHTYLNWYQQIPGKAPKLLIYGASTLQSGVPSRFSGSGSGTDFTLTINSLQPEDFATYYCQQSYSTPRTFGQGTRLDIKR	–	–	–	–	–	–	–	–	–	–	–	–	–	–	–	IC50, Neutralizing Antibody Assay, Virus/Ab Incubation 1 hour [19]: > 50 µg/mL; IC50, Neutralizing Antibody Assay, Virus/Ab Incubation 18 hour [19]: > 50 µg/mL; IC50, Neutralizing Antibody Assay, Virus/Ab Incubation 1 hour [20]: > 50 µg/mL; IC50, Neutralizing Antibody Assay, Virus/Ab Incubation 18 hour [20]: > 50 µg/mL; IC50, Neutralizing Antibody Assay, Virus/Ab Incubation 1 hour [21]: > 50 µg/mL; IC50, Neutralizing Antibody Assay, Virus/Ab Incubation 18 hour [21]: > 50 µg/mL; IC50, Neutralizing Antibody Assay, Virus/Ab Incubation 1 hour [22]: 0.179 µg/mL; IC50, Neutralizing Antibody Assay, Virus/Ab Incubation 18 hour [22]: 0.0573 µg/mL; IC50, Neutralizing Antibody Assay, Virus/Ab Incubation 1 hour [23]: > 50 µg/mL; IC50, Neutralizing Antibody Assay, Virus/Ab Incubation 18 hour [23]: > 50 µg/mL; IC50, Neutralizing Antibody Assay, Virus/Ab Incubation 1 hour [24]: 0.17 µg/mL; IC50, Neutralizing Antibody Assay, Virus/Ab Incubation 18 hour [24]: 0.05 µg/mL; IC50, Neutralizing Antibody Assay, Virus/Ab Incubation 1 hour [25]: > 50 µg/mL; IC50, Neutralizing Antibody Assay, Virus/Ab Incubation 18 hour [25]: 3.17 µg/mL; IC50, Neutralizing Antibody Assay, Virus/Ab Incubation 1 hour [26]: > 50 µg/mL; IC50, Neutralizing Antibody Assay, Virus/Ab Incubation 18 hour [26]: > 50 µg/mL; IC50, Neutralizing Antibody Assay, Virus/Ab Incubation 1 hour [27]: > 50 µg/mL; IC50, Neutralizing Antibody Assay, Virus/Ab Incubation 18 hour [27]: > 50 µg/mL
1443_C16 (PG16) (TCN-116) (antibody, V domains shown) VH: QEQLVESGGGVVQPGGSLRLSCLASGFTFHKYGMHWVRQAPGKGLEWVALISDDGMRKYHSDSMWGRVTISRDNSKNTLYLQFSSLKVEDTAMFFCAREAGGPIWHDDVKYYDFNDGYYNYHYMDVWGKGTTVTVSS VL: QSALTQPASVSGSPGQTITISCNGTSSDVGGFDSVSWYQQSPGKAPKVMVFDVSHRPSGISNRFSGSKSGNTASLTISGLHIEDEGDYFCSSLTDRSHRIFGGGTKVTVLG [1443_C16 (PG16) (TCN-116), listing 2 of 2 here]	–	–	–	–	–	–	–	–	–	–	–	–	–	–	no binding	binding result [28]: no binding; binding result [29]: no binding; binding result [30]: binds; binding result [31]: no binding
1496_C09 (PG9) (TCN-109) (antibody, V domains shown) VH: QRLVESGGGVVQPGSSLRLSCAASGFDFSRQGMHWVRQAPGQGLEWVAFIKYDGSEKYHADSVWGRLSISRDNSKDTLYLQMNSLRVEDTATYFCVREAGGPDYRNGYNYYDFYDGYYNYHYMDVWGKGTTVTVSS VL: QSALTQPASVSGSPGQSITISCNGTSNDVGGYESVSWYQQHPGKAPKVVIYDVSKRPSGVSNRFSGSKSGNTASLTISGLQAEDEGDYYCKSLTSTRRRVFGTGTKLTVLG [1496_C09 (PG9) (TCN-109), listing 2 of 2 here]	–	–	–	–	–	–	–	–	–	–	–	–	–	–	no binding	–
